One block for each binder: values may come before it.
Experiments:
[1] = biological target: T1, HHLA2 expressed on cells (3T3 cell line expressing HHLA2; HHLA2/K562) (UniProt Q9UM44 23-414, limits assumed); assay: FACS on 3T3 cells expressing HHLA2, TMIGD2-mIg (FIGS. 3A-3B)
T1 construct: whole, on cells
T1 sequence (looked up): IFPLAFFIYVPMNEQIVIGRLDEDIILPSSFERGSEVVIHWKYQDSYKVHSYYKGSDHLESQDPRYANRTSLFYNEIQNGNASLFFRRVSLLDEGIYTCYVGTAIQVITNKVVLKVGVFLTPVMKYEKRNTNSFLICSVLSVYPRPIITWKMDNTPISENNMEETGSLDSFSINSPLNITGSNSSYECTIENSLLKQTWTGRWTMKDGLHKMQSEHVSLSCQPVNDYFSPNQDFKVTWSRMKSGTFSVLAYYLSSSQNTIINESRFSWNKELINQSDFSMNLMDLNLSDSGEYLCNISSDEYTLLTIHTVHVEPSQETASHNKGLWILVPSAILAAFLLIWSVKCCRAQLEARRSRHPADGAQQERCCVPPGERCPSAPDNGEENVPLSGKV
Protocol: FIG. 3A is a chart depicting mean fluorescent intensity (MFI) of 3T3 cells expressing HHLA2 that were incubated with TMIGD2-mIg fusion polypeptide or control mIgG at the indicated concentrations prior to staining with 10 μg/ml KIR3DL3-hIg followed by Allophycocyanin (APC)-conjugated anti-human IgG Fc.
FIG. 3B is a chart depicting MFI of 3T3 cells expressing HHLA2 that were incubated with KIR3DL3-hIg fusion polypeptide or control hIgG at the indicated concentrations prior to staining with 10 μg/ml TMIGD2-mIg followed by APC anti-mouse IgG Fc.

[2] = biological target: T2, HHLA2 EC-Ig-Fc fusion polypeptide (UniProt Q9UM44 23-344); assay: FACS, staining of 3T3 cells expressing TMIGD2 (FIG. 8)
T2 construct: extracellular domain; also called whole extracellular part of HHLA2; not shown: Ig Fc part
T2 sequence (looked up): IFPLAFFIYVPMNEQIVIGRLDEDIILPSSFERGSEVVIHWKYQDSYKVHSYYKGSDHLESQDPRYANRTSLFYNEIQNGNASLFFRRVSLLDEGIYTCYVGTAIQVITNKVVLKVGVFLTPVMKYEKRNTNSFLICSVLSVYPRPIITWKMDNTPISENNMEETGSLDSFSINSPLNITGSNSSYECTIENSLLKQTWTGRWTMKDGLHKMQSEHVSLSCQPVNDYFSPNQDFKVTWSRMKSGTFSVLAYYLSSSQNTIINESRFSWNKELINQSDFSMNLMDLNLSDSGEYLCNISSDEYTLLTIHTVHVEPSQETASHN
Description: To examine the binding of TMIGD2 to HHLA2, 3T3 cell lines expressing TMIGD2 were stained with a HHLA2 EC-Ig-Fc fusion polypeptide, a HHLA-2-IgV1-hIgG fusion polypeptide, or Ig (control) (FIG. 8).

[3] = biological target: T3, KIR3DL2 expressed on 3T3 cells (UniProt P43630 22-455, limits assumed); assay: FACS, HHLA2-Ig staining of 3T3 cells expressing KIR3DL2 (FIG. 2A)
T3 construct: whole, on cells
Description: (§1) FIG. 2A depicts histograms of 3T3 cell lines expressing KIR3DL1, KIR3DL2, or KIR3DL3 stained with HHLA2-Ig fusion polypeptide (open histograms) or control Ig (shaded histograms). FIG. 2B depicts a plot showing results of an intercellular conjugate assay that indicate 3T3 cell line expressing HHLA2 bound to 3T3 cell line expressing KIR3DL3, but not the control 3T3 cell line. FIG. 2C depicts histograms of a 3T3 cell line expressing HHLA2 bound by the DO domain (red) and the whole extracellular portion (red) of KIR3DL3.
(§2) Subsequent studies reported that HHLA2 is over-expressed in various types of human cancers (Cheng 2018; Cheng 2017; Koirala 2016; Janakiram 2015). To test the binding of HHLA2 to KIR3DL1, KIR3DL2, and KIR3DL3, 3T3 cell lines stable expressing cell surface KIR3DL1, KIR3DL2, or KIR3DL3 were generated.

[4] = biological target: T4, KIR3DL1 expressed on 3T3 cells (UniProt P43629 22-444, limits assumed); assay: FACS, HHLA2-Ig staining of 3T3 cells expressing KIR3DL1 (FIG. 2A)
T4 construct: whole, on cells
Description: as §1, §2

[5] = biological target: T5, KIR3DL3 expressed on cells (3T3 cell line expressing KIR3DL3); KIR3DL3+ NK92 cells; primary KIR3DL3+ NK cells … (human, UniProt Q8N743 26-410); assay: FACS, HHLA2-Ig staining of 3T3 cells expressing KIR3DL3 (FIG. 2A)
T5 construct: also called KIR3DL3-expressing 3T3 cells; KIR3DL3 WT
Description: as §1, §2

T3 sequence (P43630 22-455 limits assumed): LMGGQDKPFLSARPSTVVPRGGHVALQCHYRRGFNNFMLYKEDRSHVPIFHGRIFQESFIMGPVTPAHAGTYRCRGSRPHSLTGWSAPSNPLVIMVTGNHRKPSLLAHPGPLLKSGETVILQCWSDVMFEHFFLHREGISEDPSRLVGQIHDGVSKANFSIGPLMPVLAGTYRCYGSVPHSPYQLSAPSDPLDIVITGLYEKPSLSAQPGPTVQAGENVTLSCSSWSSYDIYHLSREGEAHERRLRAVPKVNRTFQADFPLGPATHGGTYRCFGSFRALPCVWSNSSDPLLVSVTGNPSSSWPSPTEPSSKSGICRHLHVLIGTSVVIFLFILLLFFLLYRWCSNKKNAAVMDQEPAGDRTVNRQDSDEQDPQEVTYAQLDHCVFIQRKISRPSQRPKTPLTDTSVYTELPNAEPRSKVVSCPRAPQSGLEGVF
T4 sequence (P43629 22-444 limits assumed): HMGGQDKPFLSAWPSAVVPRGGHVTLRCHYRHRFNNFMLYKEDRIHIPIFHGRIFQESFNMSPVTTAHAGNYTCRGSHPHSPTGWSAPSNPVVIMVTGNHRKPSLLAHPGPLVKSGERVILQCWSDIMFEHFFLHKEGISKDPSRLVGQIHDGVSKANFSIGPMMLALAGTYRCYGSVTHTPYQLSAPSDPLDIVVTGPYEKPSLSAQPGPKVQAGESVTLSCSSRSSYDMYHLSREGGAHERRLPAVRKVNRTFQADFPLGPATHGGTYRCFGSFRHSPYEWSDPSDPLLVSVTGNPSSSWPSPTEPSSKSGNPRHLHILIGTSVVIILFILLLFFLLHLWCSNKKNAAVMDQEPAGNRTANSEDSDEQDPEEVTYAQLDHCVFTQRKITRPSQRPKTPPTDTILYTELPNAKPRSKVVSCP
T5 sequence (Q8N743 26-410 H321N): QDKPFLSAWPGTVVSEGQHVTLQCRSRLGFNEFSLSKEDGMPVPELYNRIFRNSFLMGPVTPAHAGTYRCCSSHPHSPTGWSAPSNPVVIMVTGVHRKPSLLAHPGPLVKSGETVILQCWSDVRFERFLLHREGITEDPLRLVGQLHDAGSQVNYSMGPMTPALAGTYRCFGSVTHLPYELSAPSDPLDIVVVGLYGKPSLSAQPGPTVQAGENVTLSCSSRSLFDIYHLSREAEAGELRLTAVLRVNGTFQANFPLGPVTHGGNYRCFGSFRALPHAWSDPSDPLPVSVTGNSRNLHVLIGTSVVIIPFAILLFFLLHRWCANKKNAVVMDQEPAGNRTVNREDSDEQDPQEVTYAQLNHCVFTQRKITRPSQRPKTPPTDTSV

binding result [1]: binds
B1: TMIGD2-mIg fusion polypeptide (Fc fusion, UniProt Q96BF3 23-150, looked up)
chain: LSVQQGPNLLQVRQGSQATLVCQVDQATAWERLRVKWTKDGAILCQPYITNGSLSLGVCGPQGRLSWQAPSHLTLQLDPVSLNHSGAYVCWAAVEIPELEEAEGNITRLFVDPDDPTQNRNRIASFPG
notes: not shown: mouse Ig part (mIg), detected with anti-mouse IgG Fc

binding result [2]: binds
B2: TMIGD2 expressed on 3T3 cells (receptor, UniProt Q96BF3 23-282, looked up)
chain: LSVQQGPNLLQVRQGSQATLVCQVDQATAWERLRVKWTKDGAILCQPYITNGSLSLGVCGPQGRLSWQAPSHLTLQLDPVSLNHSGAYVCWAAVEIPELEEAEGNITRLFVDPDDPTQNRNRIASFPGFLFVLLGVGSMGVAAIVWGAWFWGRRSCQQRDSGNSPGNAFYSNVLYRPRGAPKKSEDCSGEGKDQRGQSIYSTSFPQPAPRQPHLASRPCPSPRPCPSPRPGHPVSMVRVSPRPSPTQQPRPKGFPKVGEE
notes: whole, on cells

binding result [3]: no binding
binding result [4]: no binding
binding result [5]: binds
B3: HHLA2-Ig fusion polypeptide (Fc fusion, UniProt Q9UM44 23-344, looked up)
chain: T2 sequence (looked up)
notes: also called HHLA2 protein; not shown: Ig part

Reference: patent publication US20230040568A1 (ALBERT EINSTEIN COLLEGE OF MEDICINE, published 2023)
